Results taken from article PMC11479944.

Experiments:
[1] = biological target: GluA2 N-terminal domain (isolated GluA2 NTD) (rat); test: SEC-MALS; GluA2 NTD injected at 13 mg/mL and 1 mg/mL (legend; the text says 1-2 mg ml^-1), 100 µl samples, Superdex S200 10/300, 10 mM HEPES, 150 mM KCl, pH 7.5; only dimers seen, no step from dimers to tetramer
[2] = biological target: rat GluA2flip(Q) isoform, tagged with a FLAG epitope near its C terminus (rat)

stoichiometry N [1] | Substance | recovery from desensitization, patch-clamp recordings of GluA2 expressed in HEK293 cells, switching from pH 7.4 to pH 5.5 (pH 6.4 also tested) [2]
2 | GluA2 N-terminal domain (isolated GluA2 NTD) (domain or fragment) | –
– | rat GluA2flip(Q) isoform, tagged with a FLAG epitope near its C terminus (receptor) | 2 fold
